Values quoted from earlier work in article PMC5501900.

Target: Vinculin tail tail (Homo sapiens) (UniProt P18206)

Q: With “Vinculin head head (from UniProt P18206)” as the substance, how does the Kd read?
A: Its Kd is less than 1 nM.
